Results taken from the supplement of paper PMC10567573.

B1: PDZK1 (parent)
chain: RETASLKLLPHQPRIVEMKKGSNG

Variants of: B1
Test: protein stability index of a GFP-peptide fusion (GPS, HEK-293T) (PSI 1-6); higher = more stable
Conditions: c terminus: a fixed tail appended
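Also: lentivirally expressed fusions sorted by FACS into six bins by GFP to DsRed ratio, PSI derived from sequencing read proportions per bin multiplied by bin number.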

Variant	protein stability index
RYTASLKLLPHQPRIVEMKKGSNG [E2Y]	2.64
RTTASLKLLPHQPRIVEMKKGSNG [E2T]	3.39
RATASLKLLPHQPRIVEMKKGSNG [E2A]	2.73
RFTASLKLLPHQPRIVEMKKGSNG [E2F]	3.45
RITASLKLLPHQPRIVEMKKGSNG [E2I]	2.23
RMTASLKLLPHQPRIVEMKKGSNG [E2M]	3.08
RCTASLKLLPHQPRIVEMKKGSNG [E2C]	2.1
RDTASLKLLPHQPRIVEMKKGSNG [E2D]	3.4
RPTASLKLLPHQPRIVEMKKGSNG [E2P]	3.65
RQTASLKLLPHQPRIVEMKKGSNG [E2Q]	3.73
RSTASLKLLPHQPRIVEMKKGSNG [E2S]	3.62
RKTASLKLLPHQPRIVEMKKGSNG [E2K]	3.58
RNTASLKLLPHQPRIVEMKKGSNG [E2N]	3.57
RRTASLKLLPHQPRIVEMKKGSNG [E2R]	3.63
RVTASLKLLPHQPRIVEMKKGSNG [E2V]	2.62
RWTASLKLLPHQPRIVEMKKGSNG [E2W]	2.36
RETASKKLLPHQPRIVEMKKGSNG [L6K]	3.64
RETASNKLLPHQPRIVEMKKGSNG [L6N]	4
RETASVKLLPHQPRIVEMKKGSNG [L6V]	3.54
RETASDKLLPHQPRIVEMKKGSNG [L6D]	3.53
RETASSKLLPHQPRIVEMKKGSNG [L6S]	4.01
RETASWKLLPHQPRIVEMKKGSNG [L6W]	2.98
RETASYKLLPHQPRIVEMKKGSNG [L6Y]	3.56
RETASAKLLPHQPRIVEMKKGSNG [L6A]	3.66

Variant	protein stability index
RETASTKLLPHQPRIVEMKKGSNG [L6T]	3.63
RETASMKLLPHQPRIVEMKKGSNG [L6M]	3.55
RETASEKLLPHQPRIVEMKKGSNG [L6E]	3.95
RETASHKLLPHQPRIVEMKKGSNG [L6H]	3.56
RETASFKLLPHQPRIVEMKKGSNG [L6F]	3.15
RETASQKLLPHQPRIVEMKKGSNG [L6Q]	3.9
RETASPKLLPHQPRIVEMKKGSNG [L6P]	4.18
RETASIKLLPHQPRIVEMKKGSNG [L6I]	3.48
RETASRKLLPHQPRIVEMKKGSNG [L6R]	3.37
RETASGKLLPHQPRIVEMKKGSNG [L6G]	3.69
REFASLKLLPHQPRIVEMKKGSNG [T3F]	3.08
RERASLKLLPHQPRIVEMKKGSNG [T3R]	3.28
REPASLKLLPHQPRIVEMKKGSNG [T3P]	3.75
REIASLKLLPHQPRIVEMKKGSNG [T3I]	3.6
RESASLKLLPHQPRIVEMKKGSNG [T3S]	3.62
REQASLKLLPHQPRIVEMKKGSNG [T3Q]	3.41
REDASLKLLPHQPRIVEMKKGSNG [T3D]	3.39
REKASLKLLPHQPRIVEMKKGSNG [T3K]	3.53
REYASLKLLPHQPRIVEMKKGSNG [T3Y]	3.02
REEASLKLLPHQPRIVEMKKGSNG [T3E]	3.65
REGASLKLLPHQPRIVEMKKGSNG [T3G]	3.27
RECASLKLLPHQPRIVEMKKGSNG [T3C]	2.35
REMASLKLLPHQPRIVEMKKGSNG [T3M]	3.14
REAASLKLLPHQPRIVEMKKGSNG [T3A]	3.26

Variant	protein stability index
REWASLKLLPHQPRIVEMKKGSNG [T3W]	2.58
REHASLKLLPHQPRIVEMKKGSNG [T3H]	3.31
REVASLKLLPHQPRIVEMKKGSNG [T3V]	3.25
METASLKLLPHQPRIVEMKKGSNG [R1M]	2.38
GETASLKLLPHQPRIVEMKKGSNG [R1G]	2.8
TETASLKLLPHQPRIVEMKKGSNG [R1T]	2.98
PETASLKLLPHQPRIVEMKKGSNG [R1P]	3.24
FETASLKLLPHQPRIVEMKKGSNG [R1F]	2.99
NETASLKLLPHQPRIVEMKKGSNG [R1N]	3.8
AETASLKLLPHQPRIVEMKKGSNG [R1A]	3.58
KETASLKLLPHQPRIVEMKKGSNG [R1K]	3.67
CETASLKLLPHQPRIVEMKKGSNG [R1C]	3.34
VETASLKLLPHQPRIVEMKKGSNG [R1V]	3.14
QETASLKLLPHQPRIVEMKKGSNG [R1Q]	3.4
WETASLKLLPHQPRIVEMKKGSNG [R1W]	2.09
SETASLKLLPHQPRIVEMKKGSNG [R1S]	3.41
EETASLKLLPHQPRIVEMKKGSNG [R1E]	3.36
LETASLKLLPHQPRIVEMKKGSNG [R1L]	3.65
HETASLKLLPHQPRIVEMKKGSNG [R1H]	3.14
DETASLKLLPHQPRIVEMKKGSNG [R1D]	3.19
YETASLKLLPHQPRIVEMKKGSNG [R1Y]	3.14
RETMSLKLLPHQPRIVEMKKGSNG [A4M]	3.27
RETSSLKLLPHQPRIVEMKKGSNG [A4S]	3.17
RETLSLKLLPHQPRIVEMKKGSNG [A4L]	3.05

Variant	protein stability index
RETYSLKLLPHQPRIVEMKKGSNG [A4Y]	3.19
RETFSLKLLPHQPRIVEMKKGSNG [A4F]	2.66
RETVSLKLLPHQPRIVEMKKGSNG [A4V]	3.21
RETNSLKLLPHQPRIVEMKKGSNG [A4N]	3.81
RETPSLKLLPHQPRIVEMKKGSNG [A4P]	3.8
RETCSLKLLPHQPRIVEMKKGSNG [A4C]	3.12
RETGSLKLLPHQPRIVEMKKGSNG [A4G]	3.17
RETISLKLLPHQPRIVEMKKGSNG [A4I]	2.47
RETQSLKLLPHQPRIVEMKKGSNG [A4Q]	3.29
RETWSLKLLPHQPRIVEMKKGSNG [A4W]	2.37
RETKSLKLLPHQPRIVEMKKGSNG [A4K]	3.79
RETRSLKLLPHQPRIVEMKKGSNG [A4R]	3.88
RETESLKLLPHQPRIVEMKKGSNG [A4E]	3.43
RETDSLKLLPHQPRIVEMKKGSNG [A4D]	3.15
RETTSLKLLPHQPRIVEMKKGSNG [A4T]	3.32
RETASLKELPHQPRIVEMKKGSNG [L8E]	3.77
RETASLKILPHQPRIVEMKKGSNG [L8I]	3.34
RETASLKGLPHQPRIVEMKKGSNG [L8G]	3.42
RETASLKQLPHQPRIVEMKKGSNG [L8Q]	4.16
RETASLKFLPHQPRIVEMKKGSNG [L8F]	3.65
RETASLKKLPHQPRIVEMKKGSNG [L8K]	3.63
RETASLKWLPHQPRIVEMKKGSNG [L8W]	3.21
